Here are results for 20 sequences from patent US7749968B2, “Peptides for targeting the prostate specific membrane antigen” (The Johns Hopkins University, priority 2002, dated 2010).

For this assay, the target named is T1, Tag-xPSM (Homo sapiens, UniProt Q04609).
T1 construct: made in house; host or cells: Sf-9 insect cells infected with recombinant baculovirus; protein harvested from the media
In words: Tag-xPSM phage display selection (agarose/cellulose), sequencing of selected phage. Format: binding. As to the method:
100 μl of S-protein agarose (2× in RPMI 1640+1% Fetal Bovine Serum (FBS) and 100 μl of CBind Resin (10 mg/ml in RPMI 1640+1% FBS) without fusion protein were used to negatively select the original phage display library. 2×10^11 plaque forming units (PFU) of 1.29×10^9 different sequence phage were incubated with each aliquot of resin for 1 hr at 37° C., while rotating. The S-tag agarose was pelleted and supernatant saved as the agarose counter-selected pool. The cellulose resin was transferred onto 200 μl of 9:1 dibutyl phthalate:cyclohexane and the resin pelleted through the organic phase. The aqueous supernatant was saved as the cellulose counter-selected pool. Each counter selected pool was then added to tag-xPSM agarose or cellulose resin and incubated for 1 hr at 37° C., while rotating. The tag-xPSM agarose was pelleted and washed three times in RPMI 1640+1% FBS. The agarose pellet was then saved for phage isolation. The Tag-xPSM cellulose was transferred onto 200 μl of 9:1 dibutyl phthalate:cyclohexane and the resin pelleted through the organic phase. The tube was then snap frozen in liquid nitrogen to isolate the resin pellet. Over 75% of Tag-xPSM remained bound to the cellulose resin through these conditions. The resulting phage-bound tag-xPSM agarose and tag-xPSM cellulose were then resuspended in 200 μl of log phage ER2738 cells and phage allowed to infect 1 hour at room temperature. A small aliquot was taken at this time to quantitate the number of phage bound per round of selection. The remaining PSMA bound phage was then amplified, tittered, and applied to the next round of phage display. There was only one counter-selection round, followed by a total of five positive selection rounds, applying between 10^10 to 10^11 PFU per round. The final round of selection included cross-selections, where selected phage pools from one PSMA background where applied to the other. Individual phage were isolated and sequenced from rounds three through five.
Individual phage plaques were amplified for 5 hours in ER2738 cells at 37° C. Amplified supernatant was incubated 1:1 with PEG/NaCl buffer (20% PEG 8000, 2.5 M NaCl) for 10 minutes at room temperature. Phage were microfuged 10 minutes at 20,000 g, 4° C. The phage pellet was suspended in 100 μl Iodide buffer (10 mM Tris-HCl, pH 8.0, 1 mM EDTA, 4M NaI). Single stranded DNA (ssDNA) was precipitated with 250 μl of 100% ethanol, pelleted, and washed in 70% ethanol. Each ssDNA pellet was suspended in 30 μl 10 mM Tris, pH 7.4. Each phage was sequenced using the Amersham DYE ET mix, by incubating 6 μl ssDNA, 1 μl of 5 μM-96 pill Sequencing Primer ([…]; SEQ ID NO:108), and 8 μl of DYE ET mix in a 96 well PCR plate and amplified by 30 cycles of 95° C. for 20 seconds, 50° C. for 15 seconds, and 60° C. for 1 minute. Sequencing reaction products were spun through G50-fine Sephadex column plates, prepared on Millipore-multiscreen plates. Products were sequenced and analyzed on the MegaBACE capillary sequencer. All sequences, minus the flanking cysteines, were aligned using the Baylor College of Medicine Clustal W1.8 Global Progressive Alignment (available online) with data presented by Boxshade 3.21 software (available online through the Swiss Institute for Bioinformatics).
2×10^11 plaque-forming units (PFU) of the library was incubated with each aliquot of resin for one hour at 37° C., while rotating. The S-tag agarose was pelleted and the supernatant saved as the agarose counter-selected pool. The cellulose resin was transferred onto a 9:1 ratio of dibutyl phthalate:cyclohexane and the resin centrifuged through the organic phase. The aqueous supernatant was saved as the cellulose counter-selected pool. Each counter selected pool was then added to tag-xPSM agarose or cellulose resin, respectively, and incubated for one hour at 37° C., while rotating (see FIG. 2). The Tag-xPSM agarose was pelleted, washed, and saved for phage isolation. […]

T1 sequence (Q04609 44-750 limits assumed): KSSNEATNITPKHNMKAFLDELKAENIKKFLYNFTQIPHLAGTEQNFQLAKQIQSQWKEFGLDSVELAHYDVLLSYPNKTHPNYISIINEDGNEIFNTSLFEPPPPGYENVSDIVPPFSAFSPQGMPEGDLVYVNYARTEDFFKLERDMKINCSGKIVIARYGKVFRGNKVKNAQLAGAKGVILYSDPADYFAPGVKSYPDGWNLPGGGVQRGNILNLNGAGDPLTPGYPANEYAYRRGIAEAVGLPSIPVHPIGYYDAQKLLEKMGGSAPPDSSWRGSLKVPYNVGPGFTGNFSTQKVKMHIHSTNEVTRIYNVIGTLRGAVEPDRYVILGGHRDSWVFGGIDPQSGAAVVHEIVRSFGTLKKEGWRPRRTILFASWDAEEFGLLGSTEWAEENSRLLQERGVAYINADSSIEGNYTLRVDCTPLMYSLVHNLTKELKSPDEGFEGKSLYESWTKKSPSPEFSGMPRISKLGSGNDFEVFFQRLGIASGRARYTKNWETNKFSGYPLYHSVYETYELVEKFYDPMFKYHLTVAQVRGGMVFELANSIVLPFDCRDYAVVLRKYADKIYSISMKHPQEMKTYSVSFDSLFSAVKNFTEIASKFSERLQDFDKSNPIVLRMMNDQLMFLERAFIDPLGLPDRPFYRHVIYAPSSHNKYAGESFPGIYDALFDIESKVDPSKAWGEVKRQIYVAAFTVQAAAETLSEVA

On to CAPNKYKHC [SEQ ID NO:11], for which, where the note is “Agarose”, the “Number of times sequence was found, Round 3” value (“Number … Round 3” for short) is given as 0/0; the “Number of times sequence was found, Round 4” value (shortened to “Number … Round 4”) stood at 1; the “Number of times sequence was found, Round 5” value (“Number … Round 5” below) is recorded as 0/0. For the same sequence, where the note is “Cellulose”, the “Number … Round 3” value is on record as 0/0; the “Number … Round 4” value is reported as 0; the “Number … Round 5” value is on record as 0/0.
As to CDAVRYPVC [SEQ ID NO:20], for the setting “Agarose”, the “Number … Round 3” value is 0/0; the “Number … Round 4” value is given as 0; the “Number … Round 5” value is 0/0. For the setting “Cellulose”, the “Number … Round 3” value was 0/0; the “Number … Round 4” value is 1; the “Number … Round 5” value is 0/0.
Consider CFPQSSDRC [SEQ ID NO:24], for which, where the note is “Agarose”, the “Number … Round 3” value came to 1; the “Number … Round 4” value is given as 0/0; the “Number … Round 5” value is reported as 0/0. Besides, for the setting “Cellulose”, the “Number … Round 3” value was 0; the “Number … Round 4” value is 0/0; the “Number … Round 5” value is reported as 0/0.
In the case of CGLPTRTAC [SEQ ID NO:16], where the note is “Agarose”, the “Number … Round 3” value is listed as 0/0; the “Number … Round 4” value was 0; the “Number … Round 5” value is on record as 0/0. Where the note is “Cellulose”, the “Number … Round 3” value is given as 0/0; the “Number … Round 4” value amounted to 1; the “Number … Round 5” value is reported as 0/0.
CHKFQSKMC [SEQ ID NO:17]: for the setting “Agarose”, the “Number … Round 3” value is recorded as 0/0; the “Number … Round 4” value is listed as 0; the “Number … Round 5” value is 0/0. Under “Cellulose”, the “Number … Round 3” value is 0/0; the “Number … Round 4” value stood at 1; the “Number … Round 5” value is reported as 0/0.
For CHTKHASHC [SEQ ID NO:6], for the setting “Agarose”, the “Number … Round 3” value was 0/0; the “Number … Round 4” value was 0/0; the “Number … Round 5” value came to 0. For the setting “Cellulose”, the “Number … Round 3” value is listed as 0/0; the “Number … Round 4” value is 0/0; the “Number … Round 5” value stood at 1.
Consider CHTSLKTHC [SEQ ID NO:14], for which, under “Agarose”, the “Number … Round 3” value is on record as 0/0; the “Number … Round 4” value was determined as 0; the “Number … Round 5” value is on record as 0/0. Where the note is “Cellulose”, the “Number … Round 3” value is given as 0/0; the “Number … Round 4” value is 1; the “Number … Round 5” value was 0/0.
Consider CHTTTDVYC [SEQ ID NO:25], for which, where the note is “Agarose”, the “Number … Round 3” value was 1; the “Number … Round 4” value is 0/0; the “Number … Round 5” value is 0/0. Also, for the setting “Cellulose”, the “Number … Round 3” value is listed as 0; the “Number … Round 4” value is reported as 0/0; the “Number … Round 5” value is on record as 0/0.
Consider CKHSVSPSC [SEQ ID NO:18], for which, where the note is “Agarose”, the “Number … Round 3” value was 0/0; the “Number … Round 4” value stood at 0; the “Number … Round 5” value is reported as 0/0. Where the note is “Cellulose”, the “Number … Round 3” value is listed as 0/0; the “Number … Round 4” value was found to be 1; the “Number … Round 5” value is recorded as 0/0.
Take CKPSMMSYC [SEQ ID NO:8]: where the note is “Agarose”, the “Number … Round 3” value is reported as 0/0; the “Number … Round 4” value is given as 0/0; the “Number … Round 5” value was 0. For the same sequence, under “Cellulose”, the “Number … Round 3” value is on record as 0/0; the “Number … Round 4” value is 0/0; the “Number … Round 5” value came to 1.
CKPTNQHKC [SEQ ID NO:19]: under “Agarose”, the “Number … Round 3” value is recorded as 0/0; the “Number … Round 4” value came out at 0; the “Number … Round 5” value is recorded as 0/0. Where the note is “Cellulose”, the “Number … Round 3” value is 0/0; the “Number … Round 4” value amounted to 1; the “Number … Round 5” value is 0/0.
CLKSHSHQC [SEQ ID NO:15]: for the setting “Agarose”, the “Number … Round 3” value was 0/0; the “Number … Round 4” value was found to be 0; the “Number … Round 5” value is 0/0. For the same sequence, under “Cellulose”, the “Number … Round 3” value is recorded as 0/0; the “Number … Round 4” value worked out at 1; the “Number … Round 5” value is reported as 0/0.
Turning to CLSSNSSLC [SEQ ID NO:28], under “Agarose”, the “Number … Round 3” value is 0; the “Number … Round 4” value is recorded as 0/0; the “Number … Round 5” value is 0/0. Also, where the note is “Cellulose”, the “Number … Round 3” value was determined as 1; the “Number … Round 4” value is given as 0/0; the “Number … Round 5” value is 0/0.
For the sequence CLSTTISYC [SEQ ID NO:21], for the setting “Agarose”, the “Number … Round 3” value was 0/0; the “Number … Round 4” value came to 0; the “Number … Round 5” value is on record as 0/0. In addition, under “Cellulose”, the “Number … Round 3” value is recorded as 0/0; the “Number … Round 4” value is given as 1; the “Number … Round 5” value is given as 0/0.
As for CNKSSLGTC [SEQ ID NO:13], under “Agarose”, the “Number … Round 3” value is 0/0; the “Number … Round 4” value is on record as 0; the “Number … Round 5” value is reported as 0/0. Moreover, for the setting “Cellulose”, the “Number … Round 3” value is on record as 0/0; the “Number … Round 4” value is listed as 1; the “Number … Round 5” value is 0/0.
For the sequence CPIMLSEPC [SEQ ID NO:26], for the setting “Agarose”, the “Number … Round 3” value was found to be 1; the “Number … Round 4” value is 0/0; the “Number … Round 5” value was 0/0. For the setting “Cellulose”, the “Number … Round 3” value turned out to be 0; the “Number … Round 4” value is 0/0; the “Number … Round 5” value is recorded as 0/0.
As to CPSVNTKQC [SEQ ID NO:9], where the note is “Agarose”, the “Number … Round 3” value is recorded as 0/0; the “Number … Round 4” value is 0/0; the “Number … Round 5” value is 0. For the same sequence, where the note is “Cellulose”, the “Number … Round 3” value is on record as 0/0; the “Number … Round 4” value was 0/0; the “Number … Round 5” value is 1.
As for CQFRHSAQC [SEQ ID NO:23], where the note is “Agarose”, the “Number … Round 3” value was 1; the “Number … Round 4” value is listed as 0/0; the “Number … Round 5” value was 0/0. For the same sequence, where the note is “Cellulose”, the “Number … Round 3” value is reported as 0; the “Number … Round 4” value is listed as 0/0; the “Number … Round 5” value is recorded as 0/0.
As for CQTPYDLRC [SEQ ID NO:10], where the note is “Agarose”, the “Number … Round 3” value is reported as 0/0; the “Number … Round 4” value is 0/0; the “Number … Round 5” value stood at 0. Also, under “Cellulose”, the “Number … Round 3” value is recorded as 0/0; the “Number … Round 4” value was 0/0; the “Number … Round 5” value amounted to 1.
For the sequence CSHNDTRHC [SEQ ID NO:4], for the setting “Agarose”, the “Number … Round 3” value was 0/0; the “Number … Round 4” value was 0/0; the “Number … Round 5” value was found to be 0. Under “Cellulose”, the “Number … Round 3” value is 0/0; the “Number … Round 4” value is listed as 0/0; the “Number … Round 5” value stood at 1.
